Data set [1] can be described thus: Fab Tm by dynamic scanning fluorimetry (DSF). The format is physicochemical. Conditions: optimized antibodies. The protocol: 10 μL of 20× Sypro Orange is added to 20 μL of 0.2-1 mg/mL mAb or Fab solution. A RT-PCR instrument (BioRad CFX96 RT PCR) is used to ramp the sample plate temperature from 40 to 95° C. at 0.5° C. increment, with 2 min equilibrate at each temperature. The negative of first derivative for the raw data is used to extract Tm.

Data set [2] in a line: SEC-HPLC % monomer. Conditions: optimized antibodies. Type of data set: physicochemical. The protocol: A TSKgel SuperSW mAb HTP column (22855) was used for fast SEC analysis of mammalian produced mAbs at 0.4 mL/min with a cycle time of 6 min/run. 200 mM Sodium Phosphate and 250 mM Sodium Chloride was used as the mobile phase.

Changes are numbered by the printed parent chain.

B1: ADI-71719: anti-IL18-BP antibody, sequences in FIG. 2B; 66670 lineage (antibody, V domains shown)
VH: QVQLVQSGAEVKKPGSSVKVSCKASGGTFNSYVISWVRQAPGQGLEWMGGIIPGAGTANYAQKFQGRVTITADESTSTAYMELSSLRSEDTAVYYCARGRHSHETWGQGTLVTVSS
VL: DIQMTQSPSSVSASVGDRVTITCRASQGISSWLAWYQQKPGKAPKLLIYAASSLQSGVPSRFSGSGSGTDFTLTISSLQPEDFATYYCQQVYSLPWTFGGGTKVEIK
B1: in data set [1], the “Fab Tm (DSF, ° C.)” value worked out at 72.5 °C. Besides, the “SEC-HPLC, % monomer” value in data set [2] is recorded as 94.5%.

B2: ADI-71744: anti-IL18-BP antibody, sequences in FIG. 2R (antibody, V domains shown)
VH: QLQLQESGPGLVKPSETLSLTCTVSGGSISSSEYGWGWIRQPPGKGLEWIGSIVNSGSTYYNPSLKSRVTISVDTSKNQFSLKLSSVTAADTAVYYCARGPYRQVFDYWGQGTLVTVSS
VL: B1 VL with V91G, Y92W, L94F, W96Y
Turning to B2, in data set [1], the “Fab Tm (DSF, ° C.)” value worked out at 74.5 °C. In addition, the “SEC-HPLC, % monomer” value in data set [2] is reported as 88.1%.

B3: ADI-71741: anti-IL18-BP antibody, sequences in FIG. 2P (antibody, V domains shown)
VH: B2 VH with E33D, G35P, V54Y, N55Y
VL: B1 VL with V91G, Y92N, L94F, W96Y
In the case of B3, the “Fab Tm (DSF, ° C.)” value in data set [1] was determined as 73.5 °C. For the same molecule, the “SEC-HPLC, % monomer” value in data set [2] was 99.4%.

B4: ADI-71753: anti-IL18-BP antibody, sequences in FIG. 2S (antibody, V domains shown)
VH: B2 VH with S30F, E33D, G35Y, G37S, S52V, V54A, N55Y, V87A, Y102F
VL: B1 VL with V91G, Y92S, L94F, W96Y
Regarding B4, the “Fab Tm (DSF, ° C.)” value in data set [1] was 74.5 °C. Besides, the “SEC-HPLC, % monomer” value in data set [2] stood at 96.9%.

B5: ADI-71755: anti-IL18-BP antibody, sequences in FIG. 2T (antibody, V domains shown)
VH: B2 VH with S32P, E33D, G35P, V54F, N55Y, S58N, Y102F
VL: B1 VL with V91G, Y92W, L94F, W96Y
Regarding B5, the “Fab Tm (DSF, ° C.)” value in data set [1] came out at 74.5 °C. The “SEC-HPLC, % monomer” value in data set [2] came out at 92.9%.

B6: ADI-71728: anti-IL18-BP antibody, sequences in FIG. 2O; 66670 lineage (antibody, V domains shown)
VH: B1 VH with N30S, S31E, V33P, G54Y, A55S, N59V, S102G
VL: B1 VL with L94I
With B6, in data set [1], the “Fab Tm (DSF, ° C.)” value turned out to be 73.0 °C. The “SEC-HPLC, % monomer” value in data set [2] came out at 95.0%.

B7: ADI-71742: anti-IL18-BP antibody, sequences in FIG. 2Q (antibody, V domains shown)
VH: B2 VH with G8S, S32P, E33D, G35P, V54F, N55Y, S58N, Y102H
VL: B1 VL with V91G, Y92W, L94F, W96Y
For the molecule B7, in data set [1], the “Fab Tm (DSF, ° C.)” value came out at 74.0 °C. The “SEC-HPLC, % monomer” value in data set [2] amounted to 91.3%.

B8: ADI-71720: anti-IL18-BP antibody, sequences in FIG. 2C; 66670 lineage (antibody, V domains shown)
VH: B1 VH with N30S, S31E
VL: B1 VL with S76G
Consider B8, for which the “Fab Tm (DSF, ° C.)” value in data set [1] is 72.5 °C. In addition, the “SEC-HPLC, % monomer” value in data set [2] was found to be 98.6%.

B9: ADI-71663: anti-IL18-BP antibody, sequences in FIG. 2F; 66692 lineage (antibody, V domains shown)
VH: EVQLLESGGGLVQPGGSLRLSCAASGFTFGNTAMSWVRQAPGKGLEWVSAISANAGSTYYADSVKGRFTISRDNSKNTLYLQMNSLRAEDTAVYYCAKGPDRQVFDYWGQGTLVTVSS
VL: B1 VL with Q90H, V91A, Y92L, S93F, L94F, W96Y
Turning to B9, the “Fab Tm (DSF, ° C.)” value in data set [1] was determined as 68.0 °C. Moreover, the “SEC-HPLC, % monomer” value in data set [2] is listed as 93.9%.

B10: ADI-71736: anti-IL18-BP antibody, sequences in FIG. 2L; 66716 lineage (antibody, V domains shown)
VH: B2 VH with Y102H
VL: B1 VL with L46H, V91G, Y92F, L94F, W96Y
With B10, the “Fab Tm (DSF, ° C.)” value in data set [1] was 73.5 °C. The “SEC-HPLC, % monomer” value in data set [2] was 79.2%.

B11: ADI-71710: anti-IL18-BP antibody, sequences in FIG. 2I; 66650 lineage (antibody, V domains shown)
VH: QVQLVQSGAEVKKPGASVKVSCKASGYTFGIYAMHWVRQAPGQRLEWMGWIHAGTGVTKYSQKFQGRVTITRDTSASTAYMELSSLRSEDTAVYYCARGLGEVGPTGTSWFDPWGQGTLVTVSS
VL: DIQMTQSPSTLSASVGDRVTITCRASQSISSWLAWYQQKPGKAPKLLIYEASSLESGVPSRFSGSGSGTEFTLTISSLQPDDFATYYCQQYRYSPFTFGGGTKVEIK
For the molecule B11, the “Fab Tm (DSF, ° C.)” value in data set [1] came out at 71.5 °C. For the same molecule, in data set [2], the “SEC-HPLC, % monomer” value was 97.9%.

B12: ADI-71707: anti-IL18-BP antibody, sequences in FIG. 2M; 66650 lineage (antibody, V domains shown)
VH: B11 VH with G30R, I31H, V57N, K59L
VL: B11 VL with Y93L, S94G
Turning to B12, the “Fab Tm (DSF, ° C.)” value in data set [1] was found to be 71.0 °C. For the same molecule, the “SEC-HPLC, % monomer” value in data set [2] was determined as 98.8%.

B13: ADI-71701: anti-IL18-BP antibody, sequences in FIG. 2E; 66650 lineage (antibody, V domains shown)
VH: B11 VH with G30N, I31S, V57N
VL: B11 VL with S9P, Y93V, S94F
Take B13: the “Fab Tm (DSF, ° C.)” value in data set [1] came to 71.5 °C. The “SEC-HPLC, % monomer” value in data set [2] worked out at 98.6%.

The values above are taken from patent publication US20240425607A1, “IL-18BP ANTAGONIST ANTIBODIES AND THEIR USE IN MONOTHERAPY AND COMBINATION THERAPY IN THE TREATMENT OF CANCER” (Compugen Ltd., priority 2023, published 2024).
